Assay results taken from patent US20040072749A1.

Target: cell-surface MOG-specific IgG1 of 8.18-C5 hybridoma cells
Experiment: flow cytometry on 8.18-C5 hybridoma cells, biotinylated rMOG and FITC-streptavidin

percent of cells that bound rMOG: > 90%
Substance: recombinant, biotinylated MOG (rMOG)
